Blank lines part the entries; values can stand above or below the binder they belong to.
Key:
[1] = target: T1, human PD-L1 (human, UniProt Q9NZQ7 19-290); experiment: cell-based or functional assay
[2] = target: T1, human PD-L1; experiment: competition autoradiography on frozen tissue sections; unlabeled A02 at 0.025, 0.25, 2.5 and 25 nM displaces 0.25 nM 18F-DBCO-A02 radioligand
[3] = target: T1, human PD-L1; experiment: radioligand cell binding on ice for 1 hour, gamma counter
Experimental: After the incubation period, cell samples were centrifuged at 200×g and the supernatant was discarded. Cell pellets were resuspended in 1 mL PBS+0.5% BSA and the wash procedure repeated for a total of 3 washes. Following the final wash, cells were again centrifuged at 200×g and the supernatant was discarded. The radioactivity of the remaining cell pellets was then measured by gamma counter.

maximum radiotracer uptake ratio, hPD-L1(+) L2987 vs. hPD-L1(-) HT-29 xenografts [1]: 3.53 ratio | radiotracer uptake in PD-L1(+) L2987 xenografts relative to PD-L1(-) HT-29 xenografts, PET in mice, co-injected with 3 mg/kg unlabeled A02 Adnectin [1]: 1.04 fold | radiotracer uptake in PD-L1(+) L2987 xenografts relative to PD-L1(-) HT-29 xenografts, PET in mice, final 10 minutes of the time-activity curve [1]: 3.05 fold
B1: [^18F]-radiolabeled-A02-PEG-DBCO-FPPEGA (designed binder)
chain: EVVAATPTSLLISWSYDGPIDRYYRITYGETGGNSPVQEFTVPPDQKTATISGLKPGVDYTITVYAVRLEEAHYNREFPISINYRTPC
modifications: C-terminal cysteine linked to Maleimide-PEG4-DBCO and clicked to [^18F]-FPPEGA (produced as described in Example 9)

binding result [2]: binds
B2: A02 Adnectin, cold (unlabeled) (designed binder)
chain: EVVAATPTSLLISWSYDGPIDRYYRITYGETGGNSPVQEFTVPPDQKTATISGLKPGVDYTITVYAVRLEEAHYNREFPISINYRTPC
notes: also called unlabeled anti-PD-L1 A02 adnectin

fold cell associated radioactivity, PD-L1-positive L2987 cells over PD-L1-negative HT-29 cells [3]: 44.6 fold
B3: [^18F]-E01-4PEG-DBCO-FPPEGA (designed binder)
chain: GVSDVPRDLEVVAATPTSLLISWRAQLSPSFYYRITYGETGGNSPVQEFTVPNDVMTATISGLKPGVDYTITVYAVTTHGVYFYSPISINYRTPC
modifications: C-terminal cysteine thiol linked to Maleimide-PEG4-DBCO, which is clicked to [^18F]-FPPEGA (^18F prosthetic group)
notes: also called ^18F-radiolabeled E01-4PEG-DBCO; ^18F-E01 adnectin radiotracer
